According to patent US20220143136A1, “USE OF ANNEXINS IN PREVENTING AND TREATING MUSCLE MEMBRANE INJURY” (NORTHWESTERN UNIVERSITY, priority 2018, published 2022):
Entries after “also recorded” stand apart in the source; their conditions may differ.

How the values were obtained:
[1] = system: Sgcg-null mice; experiment: Anti-HIS immunofluorescence localization after systemic injection, Sgcg-null versus wildtype; format: in vivo, mouse
Protocol: Immunofluorescence microscopy. Mice were systemically injected with recombinant annexin A6 with a C-terminal HIS tag (R&D). Muscle was harvested and flash frozen. Muscle sections (10 μm thick) from the center of frozen-embedded muscles were collected on the cryostat (chamber, −20° C.; sample, −15° C.; catalog number CM1950; Leica, Wetzlar, Germany) for immunostaining. Tissues were fixed with 4% paraformaldehyde for 10 minutes on ice. Block and permeabilization were with 0.1% Triton (catalog number X-100; Sigma-Aldrich), 10% fetal bovine serum, and PBS for 60 minutes. For laminin detection, anti-laminin antibody was used at a dilution of 1:100 and for HIS detection, anti-HIS antibody was used at 1:100 overnight at 4° C. Hoechst labelled nuclei. Sections were PBS rinsed, incubated with secondary antibody for 1 hour, PBS rinsed, and mounted. Imaging was performed using a Zeiss Axio Observer A1 microscope (Zeiss, Oberkochen, Germany).

[2] = system: wildtype myofibers; experiment: Laser-induced membrane injury, FM 4-64 dye uptake; format: cell-based, mouse; settings: for FM 4-64 fluorescence area / dye uptake after laser injury: extracellular recombinant protein vs vehicle control
[3] = system: dysferlin-null (Dysf129) myofibers; experiment: Laser-induced membrane injury, FM 4-64 dye uptake, dysferlin-null myofibers; format: cell-based, mouse; settings: LGMD2B model
Protocol: Myofiber isolation. Flexor digitorum brevis (FDB) fibers were isolated with methods that were described previously in (Demonbreun and McNally, 2015; Demonbreun et al., 2016b; DiFranco et al., 2009). Briefly, fibers were dissociated in 0.2% BSA plus collagenase type II (Cat #17101, Thermo Fisher Scientific, Waltham, Mass.) for 60 minutes at 37 degrees in 10% CO2. Fibers were then moved to Ringers solution and placed on MatTek confocal microscopy dishes (Cat #P35G-1.5-14-C, MatTek, Ashland Mass.).
Multiphoton laser injury and imaging. Isolated fibers were subjected to laser-induced damage at room temperature using the Nikon A1R-MP multiphoton microscope. Imaging was performed using a 25×1.1 NA objective directed by the NIS-Elements AR imaging software. Green fluorescence protein (GFP) and FM 4-64 were excited using a 920 nm wavelength laser and emission wavelengths of 575 nm and 629 nm were collected respectively. […] Fluorescence intensity and cap area were measured using Fiji (NIH).
For recombinant protein studies, myofibers were isolated from mice as described above. […] Cap size was assessed from acquired images in FIJI. […] Images were acquired and quantitated as described above. FM 4-64 fluorescence at endpoint was measured using FIJI.

[4] = system: Isolated FDB fibers; experiment: Single cell Ca2+ and shortening measurements; format: cell-based, mouse; settings: annexin A6 overexpression vs control fibers
Protocol: Single cell Ca^2+ and shortening measurements. Isolated FDB fibers were plated on laminin coated glass-bottomed 35 mm dishes for one hour and then cultured overnight in DMEM with 10% FBS and 1% penicillin/streptomycin at 37° C. in a 10% CO2 incubator. One hour prior to data acquisition, the medium was removed and cells were incubated in Tyrode buffer (119 mM NaCl, 5 mM KCl, 25 mM HEPES, 2 mM CaCl2, 2 mM MgCl2) with 10 μM Indo-1 AM (TefLabs) for 1 hour at 37° C. in a 10% CO2 incubator. Dishes were then filled with Tyrode buffer, mounted on a custom stage and platinum pacing electrodes were inserted into the dish. Stimulation was elicited using a 701C high-powered stimulator controlled by the 950A software (Aurora Scientific). Stimulation was performed at 40 and 80 Hz, 5 ms pulse width, 100 ms duration. Ratiometric Ca^2+ signals were collected with two photomultiplier tubes and a FluoroDaq controller. Video sarcomere length was recorded with a high-speed camera and fast Fourier transform using the Aurora Scientific 900B-VSL system (Aurora, Ontario). Ten transients were collected over 20 seconds and averaged together per cell per frequency.

Molecule	anti-HIS immunofluorescence at the muscle membrane ([1]; Sgcg-null (LGMD2C) muscle)	anti-HIS immunofluorescence at the muscle membrane ([1]; Sgcg-null (LGMD2C) muscle, listed as rANXA6)	anti-HIS immunofluorescence at the muscle membrane ([1]; uninjured wildtype muscle)	FM 4-64 fluorescence area / dye uptake after laser injury [2]	FM 4-64 fluorescence area / dye uptake after laser injury ([2]; listed as rANXA6)	FM 4-64 fluorescence area after laser injury ([3]; extracellular recombinant protein vs vehicle control)	Ca2+ cycling (Indo-1) ([4]; 40 or 80 Hz stimulation)	unloaded cell shortening [4]	FM 4-64 dye uptake after laser-induced injury ([2]; plasmid overexpression of annexin A6-GFP vs mock electroporated control)	FM 4-64 dye uptake after laser injury ([3]; plasmid overexpression of annexin A6 vs control)
recombinant annexin A6: recombinant human annexin A6 protein with C-terminal HIS tag (5186-A6-050, R&D systems); mouse protein from Northwestern core in one cohort (protein, UniProt P08133 2-673, looked up, C-terminal His tag, recombinant human annexin A6 protein with C-terminal HIS tag (5186-A6-050, R&D systems); mouse protein from Northwestern core in one cohort) Annexin A6: AKPAQGAKYRGSIHDFPGFDPNQDAEALYTAMKGFGSDKEAILDIITSRSNRQRQEVCQSYKSLYGKDLIADLKYELTGKFERLIVGLMRPPAYCDAKEIKDAISGIGTDEKCLIEILASRTNEQMHQLVAAYKDAYERDLEADIIGDTSGHFQKMLVVLLQGTREEDDVVSEDLVQQDVQDLYEAGELKWGTDEAQFIYILGNRSKQHLRLVFDEYLKTTGKPIEASIRGELSGDFEKLMLAVVKCIRSTPEYFAERLFKAMKGLGTRDNTLIRIMVSRSELDMLDIREIFRTKYEKSLYSMIKNDTSGEYKKTLLKLSGGDDDAAGQFFPEAAQVAYQMWELSAVARVELKGTVRPANDFNPDADAKALRKAMKGLGTDEDTIIDIITHRSNVQRQQIRQTFKSHFGRDLMTDLKSEISGDLARLILGLMMPPAHYDAKQLKKAMEGAGTDEKALIEILATRTNAEIRAINEAYKEDYHKSLEDALSSDTSGHFRRILISLATGHREEGGENLDQAREDAQVAAEILEIADTPSGDKTSLETRFMTILCTRSYPHLRRVFQEFIKMTNYDVEHTIKKEMSGDVRDAFVAIVQSVKNKPLFFADKLYKSMKGAGTDEKTLTRIMVSRSEIDLLNIRREFIEKYDKSLHQAIEGDTSGDFLKALLALCGGED	localized to the muscle membrane	increased	minimal	reduced	significantly smaller; also recorded: significantly less	reduced; also recorded: decreased				
annexin A6: annexin A6 with carboxyl-terminal turboGFP or tdTomato tag, expressed from plasmid electroporated into myofibers (protein, UniProt P14824 2-673, looked up, C-terminal turboGFP or tdTomato tag, annexin A6 with carboxyl-terminal turboGFP or tdTomato tag, expressed from plasmid electroporated into myofibers) Annexin A6: AKIAQGAMYRGSVHDFPEFDANQDAEALYTAMKGFGSDKESILELITSRSNKQRQEICQNYKSLYGKDLIEDLKYELTGKFERLIVNLMRPLAYCDAKEIKDAISGVGTDEKCLIEILASRTNEQMHQLVAAYKDAYERDLESDIIGDTSGHFQKMLVVLLQGTRENDDVVSEDLVQQDVQDLYEAGELKWGTDEAQFIYILGNRSKQHLRLVFDEYLKTTGKPIEASIRGELSGDFEKLMLAVVKCIRSTPEYFAERLFKAMKGLGTRDNTLIRIMVSRSELDMLDIREIFRTKYEKSLYSMIKNDTSGEYKKALLKLCGGDDDAAGQFFPEAAQVAYQMWELSAVSRVELKGTVCAANDFNPDADAKALRKAMKGIGTDEATIIDIVTHRSNAQRQQIRQTFKSHFGRDLMADLKSEISGDLARLILGLMMPPAHYDAKQLKKAMEGAGTDEKTLIEILATRTNAEIRAINEAYKEDYHKSLEDALSSDTSGHFRRILISLATGNREEGGENRDQAQEDAQVAAEILEIADTPSGDKTSLETRFMTVLCTRSYPHLRRVFQEFIKKTNYDIEHVIKKEMSGDVKDAFVAIVQSVKNKPLFFADKLYKSMKGAGTDEKTLTRVMVSRSEIDLLNIRREFIEKYDKSLHQAIEGDTSGDFMKALLALCGGED							no differences	unaffected	decreased; also recorded: reduced	significant reduction; also recorded: reduced
